{"source": "paper PMC5692476", "about": "“Effects of Periplasmic Chaperones and Membrane Thickness on BamA-Catalyzed Outer-Membrane Protein Folding” (Journal of Molecular Biology, 2017)", "molecules": {"B1": {"name": "SurA (natural protein, Escherichia coli, UniProt P0ABZ6 21-428, looked up)", "chain": "APQVVDKVAAVVNNGVVLESDVDGLMQSVKLNAAQARQQLPDDATLRHQIMERLIMDQIILQMGQKMGVKISDEQLDQAIANIAKQNNMTLDQMRSRLAYDGLNYNTYRNQIRKEMIISEVRNNEVRRRITILPQEVESLAQQVGNQNDASTELNLSHILIPLPENPTSDQVNEAESQARAIVDQARNGADFGKLAIAHSADQQALNGGQMGWGRIQELPGIFAQALSTAKKGDIVGPIRSGVGFHILKVNDLRGESKNISVTEVHARHILLKPSPIMTDEQARVKLEQIAADIKSGKTTFAAAAKEFSQDPGSANQGGDLGWATPDIFDPAFRDALTRLNKGQMSAPVHSSFGWHLIELLDTRNVDKTDAAQKDRAYRMLMNRKFSEEAASWMQEQRASAYVKILSN", "notes": "SurA, periplasmic chaperone of Escherichia coli; Probably the mature protein without its signal peptide (surmised); also called Escherichia coli periplasmic chaperone SurA"}, "B2": {"name": "Skp (natural protein, Escherichia coli, UniProt P0AEU7 21-161, looked up)", "chain": "ADKIAIVNMGSLFQQVAQKTGVSNTLENEFKGRASELQRMETDLQAKMKKLQSMKAGSDRTKLEKDVMAQRQTFAQKAQAFEQDRARRSNEERGKLVTRIQTAVKSVANSQDIDLVVDANAVAYNSSDVKDITADVLKQVK", "notes": "Skp, periplasmic chaperone of Escherichia coli; Probably the mature protein without its signal peptide (surmised); also called Escherichia coli periplasmic chaperone Skp"}}, "key": {"OmpC (Escherichia coli)": {"biological_target": "OmpC (Escherichia coli) (UniProt P06996)", "sequence (P06996 22-367)": "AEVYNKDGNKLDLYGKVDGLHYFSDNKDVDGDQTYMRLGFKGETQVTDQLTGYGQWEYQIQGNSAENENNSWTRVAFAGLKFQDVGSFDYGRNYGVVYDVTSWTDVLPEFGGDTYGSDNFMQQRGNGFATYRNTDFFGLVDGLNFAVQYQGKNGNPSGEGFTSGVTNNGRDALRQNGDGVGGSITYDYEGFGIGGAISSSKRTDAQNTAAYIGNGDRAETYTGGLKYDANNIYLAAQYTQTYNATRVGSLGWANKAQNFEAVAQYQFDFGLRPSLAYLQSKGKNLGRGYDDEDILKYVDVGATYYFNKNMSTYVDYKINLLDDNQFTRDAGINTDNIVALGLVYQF", "assay": "FRET", "conditions": "cited from earlier work"}, "[1]": {"biological_target": "Cys-tOmpA labeled with Alexa Fluor 488 (E. coli)", "assay": "MST; 100 nM Alexa Fluor 488-labeled Cys-tOmpA, SurA 100 μM–3 nM, 0.25 M urea, 50 mM glycine–NaOH pH 9.5; Monolith NT.115; fit to the Hill equation; apparent"}, "[2]": {"biological_target": "T1, transmembrane domain of OmpA (tOmpA) (E. coli, UniProt P0A910 22-192)", "T1 construct": "171-residue transmembrane (beta-barrel) domain of OmpA; Diluted from a denatured state in 8 M urea into the chaperone solution; PDB 1QJP, used for the simulations, is the same domain with mutated residues", "T1 sequence (looked up)": "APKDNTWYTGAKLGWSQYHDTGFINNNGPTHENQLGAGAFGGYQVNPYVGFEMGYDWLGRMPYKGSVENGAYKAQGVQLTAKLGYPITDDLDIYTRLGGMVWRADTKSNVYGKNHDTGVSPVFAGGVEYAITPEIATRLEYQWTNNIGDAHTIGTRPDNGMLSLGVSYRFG", "assay": "native MS; nano-ESI; proteins alone or pre-mixed 1:1; tOmpA diluted from 8 M urea into Skp or SurA (all 1 μM final, 0.2 M urea, 50 mM glycine–NaOH pH 9.5), 5 min at room temperature, then buffer exchange into 200 mM ammonium acetate pH 10", "conditions": "both partners purified"}, "[3]": {"biological_target": "T2, SurA (Escherichia coli), P0ABZ6", "T2 chain": "B1 chain", "assay": "native MS; nano-ESI; proteins alone or pre-mixed 1:1; tOmpA diluted from 8 M urea into Skp or SurA (all 1 μM final, 0.2 M urea, 50 mM glycine–NaOH pH 9.5), 5 min at room temperature, then buffer exchange into 200 mM ammonium acetate pH 10", "conditions": "remark: other sources report otherwise"}}, "note": "Several values for one entry are separate records, joined by “and”; a condition that tells them apart may be missing. Equal entries are not always repeated.", "data": [{"molecule": "SurA (from UniProt P0ABZ6)", "values": [{"measurement": "Kd", "setting": "OmpC (Escherichia coli)", "value": 106, "unit": "nM"}]}, {"molecule": "B1", "values": [{"measurement": "Kd", "setting": "[1]", "value": 1800, "unit": "nM"}, {"measurement": "stoichiometry N", "setting": "[2]", "value": "1 and 2"}, {"measurement": "stoichiometry N", "setting": "[3]", "value": 2}]}, {"molecule": "B2", "values": [{"measurement": "stoichiometry N", "setting": "[2]", "value": 1}]}]}
